Results published in patent US20160106861A1, “AXL ANTIBODY-DRUG CONJUGATE AND ITS USE FOR THE TREATMENT OF CANCER” (PIERRE FABRE MEDICAMENT, priority 2013, published 2016).
Changes are numbered by the printed parent chain.

Assays:
[1] = biological target: T1, membrane Axl receptor (Homo sapiens, UniProt P30530); experiment: FACS binding on human tumor cells; details: various human tumor cells
T1 construct: endogenous in cells; host or cells: human tumor cell lines SN12C, Calu-1, MDA-MB435S, MDA-MB231, NCI-H125, MCF7 (Axl-negative), Panc1
T1 sequence (P30530 26-894): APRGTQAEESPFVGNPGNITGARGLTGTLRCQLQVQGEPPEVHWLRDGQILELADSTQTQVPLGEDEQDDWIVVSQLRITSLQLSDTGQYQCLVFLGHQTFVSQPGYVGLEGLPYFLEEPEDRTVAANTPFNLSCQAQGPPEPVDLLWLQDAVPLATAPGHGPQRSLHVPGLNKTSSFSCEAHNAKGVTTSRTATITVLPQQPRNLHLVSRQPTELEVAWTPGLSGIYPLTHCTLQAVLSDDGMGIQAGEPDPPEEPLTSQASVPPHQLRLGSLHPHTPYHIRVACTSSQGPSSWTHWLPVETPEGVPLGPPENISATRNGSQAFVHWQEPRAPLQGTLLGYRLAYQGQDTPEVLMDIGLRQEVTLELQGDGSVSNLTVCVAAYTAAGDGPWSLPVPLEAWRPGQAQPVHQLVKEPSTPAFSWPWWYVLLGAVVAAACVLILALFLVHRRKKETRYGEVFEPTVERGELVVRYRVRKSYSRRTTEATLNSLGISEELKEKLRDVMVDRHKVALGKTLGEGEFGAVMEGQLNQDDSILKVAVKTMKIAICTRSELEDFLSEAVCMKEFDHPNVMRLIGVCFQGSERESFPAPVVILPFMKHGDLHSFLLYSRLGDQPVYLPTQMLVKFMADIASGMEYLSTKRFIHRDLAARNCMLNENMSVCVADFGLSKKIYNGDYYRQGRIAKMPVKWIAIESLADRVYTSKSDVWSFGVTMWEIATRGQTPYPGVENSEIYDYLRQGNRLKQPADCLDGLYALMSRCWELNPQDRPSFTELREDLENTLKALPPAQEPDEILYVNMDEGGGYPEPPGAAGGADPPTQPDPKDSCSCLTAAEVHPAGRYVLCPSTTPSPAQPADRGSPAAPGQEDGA
Procedure: (§1) For cell surface binding studies, two fold serial dilutions of a 10 μg/ml (6.66 10^−8 M) primary antibody solution (1613F12, MAB154 or mIgG1 isotype control 9G4 Mab) are prepared and are applied on 2·10^5 cells for 20 min at 4° C. After 3 washes in phosphate-buffered saline (PBS) supplemented with 1% BSA and 0.01% NaN3, cells were incubated with secondary antibody Goat anti-mouse Alexa 488 ( 1/500° dilution) for 20 minutes at 4° C. After 3 additional washes in PBS supplemented with 1% BSA and […], cells were analyzed by FACS (Facscalibur, Becton-Dickinson). At least 5000 cells were assessed to calculate the mean value of fluorescence intensity.
(§2) 1613F12 dose response curves were prepared. MFIs obtained using the various human tumor cells were then analysed with Prism software.

[2] = biological target: T2, recombinant human Axl-Fc (R and D Systems, cat N° 154AL/CF) (human, UniProt P30530 26-451); experiment: ELISA on coated rhAxl-Fc
T2 construct: Bought protein; also called rhAxl-Fc; rh Axl-Fc protein; not shown: Fc of human IgG (coating control with anti-human IgG Fc)
T2 sequence: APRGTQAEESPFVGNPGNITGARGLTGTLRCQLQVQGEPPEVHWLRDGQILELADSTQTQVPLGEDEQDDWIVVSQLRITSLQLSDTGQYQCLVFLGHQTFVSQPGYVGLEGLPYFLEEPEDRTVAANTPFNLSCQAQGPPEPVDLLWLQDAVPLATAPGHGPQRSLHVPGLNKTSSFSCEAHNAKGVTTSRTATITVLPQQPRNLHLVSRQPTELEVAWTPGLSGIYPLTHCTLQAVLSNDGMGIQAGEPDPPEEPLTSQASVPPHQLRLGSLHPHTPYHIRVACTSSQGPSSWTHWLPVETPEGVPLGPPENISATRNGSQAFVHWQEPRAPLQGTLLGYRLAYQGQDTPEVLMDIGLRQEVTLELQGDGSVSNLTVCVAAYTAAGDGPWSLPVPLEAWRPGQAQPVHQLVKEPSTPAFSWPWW

[3] = test system: MCF7 human breast tumor cell line; experiment: FACS binding on MCF7 cells
Procedure: as §1, §2

[4] = biological target: T3, rhAxl-Fc protein (Homo sapiens, UniProt P30530); experiment: ELISA binding on immobilized rhAxl-Fc protein; details: starting concentration 5 μg/ml, 1/2 serial dilutions
T3 construct: purchased R and D Systems 154AL/CF
T3 sequence (P30530 26-451 limits assumed): T2 sequence with N241D
Procedure: (§3) Briefly, the recombinant human Axl-Fc (R and D systems, cat N° 154AL/CF), rhDtk (R and D Systems, cat N° 859-DK) or rhMer-Fc (R and D Systems, cat N° 891-MR) proteins were coated overnight at 4° C. to Immulon II 96-well plates and, after a 1 h blocking step with a 0.5% gelatine solution, 1613F12 was added for an additional 1 h at 37° C. at starting concentration of 5 μg/ml (3.33 10^−8M). Then ½ serial dilutions were done over 12 columns. Plates were washed and a goat anti-mouse (Jackson) specific IgG-HRP was added for 1 h at 37° C. Reaction development was performed using the TMB substrate solution. The isotype control antibody mIgG1 and the commercial anti-Axl Mab 154 antibody were also used in parallel. Coating controls were performed in presence of a goat anti-human IgG Fc polyclonal serum labelled with HRP (Jackson, ref 109-035-098) and/or in presence of a HRP-coupled anti-Histidine antibody (R and D Systems, ref: MAB050H).

[5] = biological target: T4, rhMer-Fc (Homo sapiens, UniProt Q12866); experiment: ELISA binding on immobilized rhMer-Fc protein; details: starting concentration 5 μg/ml, 1/2 serial dilutions
T4 construct: purchased R and D Systems 891-MR
Procedure: as §3

T4 sequence (Q12866 with tags, fused parts or gaps limits assumed): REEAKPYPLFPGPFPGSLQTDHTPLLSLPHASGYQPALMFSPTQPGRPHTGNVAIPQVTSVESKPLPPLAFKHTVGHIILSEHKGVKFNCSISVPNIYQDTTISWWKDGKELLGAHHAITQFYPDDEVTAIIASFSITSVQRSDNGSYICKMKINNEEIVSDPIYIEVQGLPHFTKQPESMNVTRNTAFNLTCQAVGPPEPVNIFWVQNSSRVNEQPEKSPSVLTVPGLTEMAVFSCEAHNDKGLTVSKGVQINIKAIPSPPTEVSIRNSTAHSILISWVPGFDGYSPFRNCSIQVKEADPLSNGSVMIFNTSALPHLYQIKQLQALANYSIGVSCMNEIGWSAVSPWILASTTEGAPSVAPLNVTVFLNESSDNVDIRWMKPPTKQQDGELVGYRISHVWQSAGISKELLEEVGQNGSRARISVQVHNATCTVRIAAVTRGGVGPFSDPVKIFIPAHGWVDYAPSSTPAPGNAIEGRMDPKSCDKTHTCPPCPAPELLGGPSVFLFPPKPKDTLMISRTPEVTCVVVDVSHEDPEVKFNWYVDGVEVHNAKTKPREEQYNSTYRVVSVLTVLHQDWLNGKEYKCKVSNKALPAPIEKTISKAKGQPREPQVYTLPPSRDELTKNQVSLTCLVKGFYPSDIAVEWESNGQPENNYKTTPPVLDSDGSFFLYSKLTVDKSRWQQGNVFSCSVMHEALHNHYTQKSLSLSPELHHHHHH

- binding result [2]: binds
- binding on rhAxl-Fc protein (ELISA) [4]: only binds to the rhAxl-Fc protein
- binding on rhMer (ELISA) [5]: does not bind
B1: m1613F12 (murine 1613F12, hybridoma CNCM I-4505) (antibody, V domains shown)
VH: EVHLQQSGAELVKPGASVKLSCTASGFNIRDTYIHWVKQRPEQGLEWIGRLDPANGHTKYGPNFQGRATMTSDTSSNTAYLQLSSLTSEDTAVYYCARGAYYYGSSGLFYFDYWGQGTTLSVSS
VL: DVQITQSPSYLATSPGETITINCRASKSISKYLAWYQEKPGKTNKLLIYSGSTLQSGVPSRFSGSGSGTDFTLTISSLEPEDFAMYFCQQHHEYPLTFGAGTELELK
notes: Murine monoclonal antibody; also called Axl antibody
- binding to membrane Axl receptor on human tumor cells (FACS, saturation curves) [1]: binds specifically to the membrane Axl receptor
- binding of Axl receptor on MCF7 (FACS) [3]: No binding of Axl receptor was observed
